Measurements from article PMC8281026, “Peptide Based Inhibitors of Protein Binding to the Mitogen-Activated Protein Kinase Docking Groove” (Frontiers in Molecular Biosciences, 2021).

Target: ERK2, P28482
Experiment: fluorescence polarisation; competitive: complex of the MAPK with 50 nM Cf-RHDF at 60-80% complex formation titrated with increasing unlabeled peptide; 20 mM Tris pH 8.0, 100 mM NaCl, 0.05% Brij35, 2 mM TCEP; 384-well black plates; triplicates; constants are called Kd in Table 1 and Ki in the …

Sequence of ERK2, P28482 (P28482 whole entry): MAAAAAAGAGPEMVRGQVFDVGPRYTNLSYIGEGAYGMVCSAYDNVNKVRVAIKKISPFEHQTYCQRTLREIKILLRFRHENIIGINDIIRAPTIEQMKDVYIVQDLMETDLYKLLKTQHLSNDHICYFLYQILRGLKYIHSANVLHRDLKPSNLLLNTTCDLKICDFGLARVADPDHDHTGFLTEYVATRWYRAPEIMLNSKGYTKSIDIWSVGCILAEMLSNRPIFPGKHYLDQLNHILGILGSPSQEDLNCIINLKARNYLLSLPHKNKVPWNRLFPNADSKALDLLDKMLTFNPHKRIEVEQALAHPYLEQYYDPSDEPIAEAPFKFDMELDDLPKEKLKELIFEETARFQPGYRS

Kd: 600 nM
B1: octaarginine conjugate of the native RHDF1 sequence (peptide 2) (peptide)
chain 1: SLQRKKPPWLKLDIPSC
chain 2: RRRRRRRR
modifications: not checked
